Assay results as given in the nanobody polyreactivity screen of Harvey et al. (2022).

Test: yeast display, Sf9 membrane polyspecificity reagent, FACS + sequencing; frameworks hold sequencing errors
Outline: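 A nanobody's polyreactivity label depends on the gate it was sorted from. Yeast display cells were stained with 10% biotinylated, detergent-solubilized Sf9 membrane reagent for 1 hour at 4 °C, enriched on streptavidin microbeads and sorted by FACS. The low and high (top ~1%) gates were set on anti-HA fluorescence for expression and streptavidin fluorescence for reagent binding.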

Row | Sequence | polyreactivity (PSR sort gate)
1 | QVQLVESGGGLVQAGGSLRLSCAASGSIFSQYAMGWYRQAPGKERELVDAITYGGGSTYYADSVKGRFTISRDNAKNTVYLQMNSLKPEDTAVYYCNADGWNTYIGPRRYRYDYWGQGTQVTVSS | low polyreactivity
2 | QVQLVESGGGLVQAGGSLRLSCAASGSIFSRIAMGWYRKAPGKERELVAAISGRGGSTYYADSVKGRFTISRDNAKNTVYLHMKSLKPEDTAVYYCAKAVNYRLSQAMDYWGQGTQVTVSS | high polyreactivity
3 | QVQLVESGGGLVQAGGSLRLSCAASGSIFSRNAMGWYRQAPGKEREFVAAISWSGGRTYYADSVKGRFTISRDNAKNTVYLQMNSLKPEDTAVYYCSKGYSYHWYHVTFYSWGQGTQVTVSS | high polyreactivity
4 | QVQLVESGGGLVQAGGSLRLSCAASGSIFSRNAMGWYRQAPGKEREFVARISWSSTSTNYADSVKGRFTISRDNAKNPVYLQMNSLKPEDTAVYYCAADFRGDRRFDYWGQGTQVTVSS | low polyreactivity
5 | QVQLVESGGGLVQAGGSLRLSCAASGSIFSRNAMGWYRQAPGKERELVAAISRRGGSTYYADSVKGRFTISRDNAKITVYLQMNSLKPEDTAVYYCAAPFEAVRSYYWGQGTQVTVSS | high polyreactivity
6 | QVQLVESGGGLVQAGGSLRLSCAASGSIFSRNAMGWYRQAPGKERELVASMSWRGGSTNYADSVKGRFTISRDNAKNTVYLQMNSLKPEDTAVYYCNAPYRHQPGGGYWGQGTQVTVSS | low polyreactivity
7 | QVQLVESGGGLVQAGGSLRLSCAASGSIFSRNVMGGSRQAPGKERELVAAITGSGGRTYYADSVKGRFTISRDNAKNTVYLQMNSLKPEDTAVYYCAKSRPGPYDYWGQGTQVTVSS | high polyreactivity
8 | QVQLVESGGGLVQAGGSLRLSCAASGSIFSRYAMGWYRQAPGKEMELVAAISSRGGSTSYADSVKGRFTISRDYAKNTVYLQMNSLQPEDTAVYYCGRVYYAGPRLYRDFGFDYWGQGTQVTVSS | high polyreactivity
9 | QVQLVESGGGLVQAGGSLRLSCAASGSIFSRYAMGWYRQAPGKERELVAAISKSGGTTYYADSVKGRFTISRDNAKNTVYLQMNSLKPEDTAVYYCNAKRYRNGSIGMGYWGQGTQVTVSS | high polyreactivity
10 | QVQLVESGGGLVQAGGSLRLSCAASGSIFSRYTMGWYRQAPGKERELVARINSSGTSTYYADSVQGRFTIARDNAKNTVYLQMNSLKPEDTAVYYCAAQVDTQYWDFDYWGQGTQVTVSS | low polyreactivity
11 | QVQLVESGGGLVQAGGSLRLSCAASGSIFSRYTMGWYRQATGKERELVAAITSSGGSTYYADSVKGRFTISRDNAKNTVYLQMNSLKPEDTAVYYCNAVRRQWYWTAWFSARGYGYWGQGTQVTVSS | high polyreactivity
12 | QVQLVESGGGLVQAGGSLRLSCAASGSIFSRYTMGWYRQPPGKERELVAAITSSGGRTYYADSVKGRFRISRDNAKNTVYLQLNSLKPVVTAVYYCAARIQKQQGYGYWGQGTQVTVSS | high polyreactivity
13 | QVQLVESGGGLVQAGGSLRLSCAASGSIFSSNAMGWYRQAPGKERELVAAISRRGGSTYYADSVKGRFTISRDNAKNTVYLQMNSLKPEDTAVYYCNAYPWLLSTRYDYWGQGTQVTVSS | high polyreactivity
14 | QVQLVESGGGLVQAGGSLRLSCAASGSIFSSNAMGWYRQAPGKERELVAAISSSGSRTYYADSVKGRFTISRDNAKNTVYLQMNSLKPEDTAVYYCAAVIRYTRSYDYWGQGTQVTVSS | high polyreactivity
15 | QVQLVESGGGLVQAGGSLRLSCAASGSIFSSNVMGWYRQAPGKERELVAAITVRGSRTYYADSVKGRFTISRDNAKNTVYLQMNSLKPEDTAVYYCNAVARVLGSDRRLQYYYWGQGTQVTVSS | high polyreactivity
16 | QVQLVESGGGLVQAGGSLRLSCAASGSIFSSYAMGWYRQAPGKERELVAAISGSGGSTFYADSVKGRFTISRDNAKNTVYLQMNSLKPEDTAVYYCAARYYWYGRAGKKHASYYYWGQGTQVTVSS | high polyreactivity
17 | QVQLVESGGGLVQAGGSLRLSCAASGSIFSSYAMGWYRQAPGKERELVAAISQNGGSTDYADSVKGRFTISRDKAKNTVYLQMNSLKPEDTAVYYCNAYSVYVRGEYWGQGTQVTVSS | high polyreactivity
18 | QVQLVESGGGLVQAGGSLRLSCAASGSIFSSYAMGWYRQAPGKERELVAAITRTGGRTYYADSVKGRFTISRDNAKNTVYLQMNSLKPEDTAVYYCAAKQVSRGVAAYDYWGQGTQVTVSS | high polyreactivity
19 | QVQLVESGGGLVQAGGSLRLSCAASGSIFSSYVMGWYRQAPGKERELVAAISRSGGSTYYADSVKGRFTISRDNAKNTVYLQMNSRKPEDTAFYYCAADWTRGSPGMDYWGQGTQVTVSS | high polyreactivity
20 | QVQLVESGGGLVQAGGSLRLSCAASGSIFSSYVMVWYRQAPGKERELVAAISSSGGSTYYADSVKGRFTISRDNAKNTVYLQMNSLKPEDTAVYYCAARSYYSYYLMYYWGQGTQVTVSS | high polyreactivity
21 | QVQLVESGGGLVQAGGSLRLSCAASGSIFSTYAMGWYRQAPGKERELVAAIRTWSGGRTYYADSVKGRFTISRDNAKNTVYLQMNSLKPEDTAVYYCAAQFSRYRDYGLNYYYWGQGTQVTVSS | high polyreactivity
22 | QVQLVESGGGLVQAGGSLRLSCAASGSIFSTYAMGWYRQAPGKERELVAAISRSGGSTYYADSVKGRFTISRDNAKNTVFLQMNSLKPEDTAVYYCAKVGRRQRYDYWGQGTQVTVSS | high polyreactivity
23 | QVQLVESGGGLVQAGGSLRLSCAASGSIFSTYAMGWYRQAPGKERELVAAISSSSGSTYYADSVKGRFTISRDNAKNTVYLQMNSLKPEDTAVYYCAAAYSQYSTSYYYWGQGTQVTVSS | high polyreactivity
24 | QVQLVESGGGLVQAGGSLRLSCAASGSIFSTYVMVWYRQAPGKERELVAAITVSVGSTYYADSVKGRFTISRDNAKNTVYLQMNSLKPEDTAVYYCAAYGGTGYPFDAYYHDYDYWGQGTQVTVSS | low polyreactivity
25 | QVQLVESGGGLVQAGGSLRLSCAASGSIFSVYAMGWYRQAPGKERELVAAISRGDSTYYADSVKGRFTISRDNAKNTVYLQMNSLKPEDTAVYYCAKAYLRYYDGPYDYWGQGTQVTVSS | low polyreactivity
26 | QVQLVESGGGLVQAGGSLRLSCAASGSIFSVYAMGWYRQAPGKERELVAAITRGGNTYYADSVKGRFTISRDNAKNTVYLQMNSLKPEDTAVYYCNAGPYGRFYYRGLGYWGQGTQVTVSS | low polyreactivity
27 | QVQLVESGGGLVQAGGSLRLSCAASGSIFSVYAMGWYSQAPGKEREVVAASTSSGGSTYYADSVKGRFTISRDNAKNTVHFQMNSLKPEDTAVYYCAADKYVRRLSWYRYGYWGQGTQVTVSS | high polyreactivity
28 | QVQLVESGGGLVQAGGSLRLSCAASGSIFSWYAMGWYRQAPGKERELVAAITWTGGSTYYADSVKGRFTISRDNAKNTVYLQMLSLKPEDTAVYYCAARRVVYRYYWYSAYDYWGQGTQVTVSS | high polyreactivity
29 | QVQLVESGGGLVQAGGSLRLSCAASGSIFSWYAMGWYRQAPGKEWELVAAITWSGGSTYYADSVKGRFTISRDNAKKTVYLQMNSLKPEDTAVYYCAASYDIYGNYRRYDYWGQGTQVTVSS | high polyreactivity
30 | QVQLVESGGGLVQAGGSLRLSCAASGSIFSWYTMGWYRQAPGKERELVAAISRRGGSTYYADSVKGRFTISRDNAKNTVFLQMNSLKPEDNAVYYCAAAHPATRYDYWGQGTQVTVSS | high polyreactivity
